Experimental data from the supplement of paper PMC10598134.
± gives the standard deviation.

Experiment: collision cross section of modified peptide (TIMS, N2, iRT-aligned); higher = larger / more extended gas-phase ion
How it was run: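 Collision cross section was derived from the Mason-Schamp equation. Each value averages 1–3 technical replicates of the most abundant feature per charge state, measured on a timsTOF Pro/HT in dda-PASEF mode (nitrogen, ~2.4 mbar) after a 120-min nanoflow C18 gradient at 60 °C. Synthetic peptide pools (~100 fmol/µL in 2% acetonitrile/0.1% formic acid, iRT standard spiked 1:40) were identified with MaxQuant, and 1/K0 was calibrated with three reference ions and aligned run-wise to the median iRT peptide deviation.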

[1] = charge state: 2, modification: Dimethyl (K)
[2] = charge state: 3, modification: Dimethyl (K)
[3] = charge state: 2, modification: Formyl
[4] = charge state: 2, modification: Glutarylation
[5] = charge state: 3, modification: Glutarylation
[6] = charge state: 3, modification: Formyl
[7] = charge state: 2, modification: Phospho (Y)
[8] = charge state: 2, modification: Butyryl
[9] = charge state: 2, modification: Malonyl
[10] = charge state: 2, modification: GlyGly (K)
[11] = charge state: 3, modification: GlyGly (K)
[12] = charge state: 2, modification: Hydroxyproline
[13] = charge state: 2, modification: Acetyl (K)
[14] = charge state: 3, modification: Acetyl (K)
[15] = charge state: 2, modification: hydroxyisobutyryl
[16] = charge state: 3, modification: hydroxyisobutyryl
[17] = charge state: 2, modification: Citrullination (R)
[18] = charge state: 3, modification: Methyl (R)
[19] = charge state: 2, modification: Succinyl
[20] = charge state: 2, modification: Methyl (K)
[21] = charge state: 3, modification: Methyl (K)
[22] = charge state: 2, modification: Propionyl
[23] = charge state: 3, modification: Butyryl
[24] = charge state: 2, modification: Nitro (Y)
[25] = charge state: 3, modification: Propionyl

VETTVTSLKTK [_VETTVTSLK(Dimethyl (K))TK_]
collision cross section [1]: 385.99 ± 0.37 Å²
collision cross section [2]: 450.04 ± 3.7 Å²

TLQKQSVVYGGK [_TLQK(Formyl)QSVVYGGK_]
collision cross section [3]: 387.94 ± 1 Å²

SSGPGGQNVNKVNSK [_SSGPGGQNVNK(Gluratylation)VNSK_]
collision cross section [4]: 409.46 ± 0.95 Å²
collision cross section [5]: 446.64 ± 1.9 Å²

GFALVGVGSEASSKK [_GFALVGVGSEASSK(Formyl)K_]
collision cross section [3]: 409.61 ± 2 Å²
collision cross section [6]: 498.32 ± 1.8 Å²

FTEYETQVK [_FTEY(Phospho (Y))ETQVK_]
collision cross section [7]: 359.15 ± 0.75 Å²

SKLLFSNTAAQK [_SK(Butyryl)LLFSNTAAQK_]
collision cross section [8]: 402.3 ± 1.3 Å²

VGIDTPDIDIHGPEGKLK [_VGIDTPDIDIHGPEGK(Formyl)LK_]
collision cross section [3]: 485.77 ± 1.5 Å²
collision cross section [6]: 533.35 ± 1.3 Å²

LTEKELAEAASK [_LTEK(Malonyl)ELAEAASK_]
collision cross section [9]: 390.08 ± 1.1 Å²
collision cross section (charge state: 3, modification: Malonyl): 448.74 ± 2.2 Å²

GSLGAQKLANTCFNEIEK [_GSLGAQK(GlyGly (K))LANTCFNEIEK_]
collision cross section [10]: 500.39 ± 1.8 Å²
collision cross section [11]: 528.63 ± 18 Å²

GAPGPQGPPGPPGK [_GAPGPQGPPGPP(Hydroxyproline)GK_]
collision cross section [12]: 359.87 ± 0.26 Å²

VNVEAPDVNLEGLGGKLK [_VNVEAPDVNLEGLGGK(Acetyl (K))LK_]
collision cross section [13]: 460.53 ± 2.8 Å²
collision cross section [14]: 542.09 Å²

AAQASDLEKIHLDEK [_AAQASDLEK(hydroxyisobutyryl)IHLDEK_]
collision cross section [15]: 466.52 ± 0.88 Å²
collision cross section [16]: 501.4 ± 2.8 Å²

FRSGNYR [_FR(Citrullination (R))SGNYR_]
collision cross section [17]: 327.94 ± 2.8 Å²

PPGFSPFR [_PP(Hydroxyproline)GFSPFR_]
collision cross section [12]: 331.47 ± 1.3 Å²

VDVEVPDVSLEGPEGKLK [_VDVEVPDVSLEGPEGK(Acetyl (K))LK_]
collision cross section [13]: 461.92 ± 2.1 Å²
collision cross section [14]: 555.98 Å²

GGNFGGRGGYGGGGGGSR [_GGNFGGR(Methyl (R))GGYGGGGGGSR_]
collision cross section [18]: 462.43 ± 2.7 Å²

VDIDAPDVSIEGPDAKLK [_VDIDAPDVSIEGPDAK(Malonyl)LK_]
collision cross section [9]: 466.92 ± 1.2 Å²

KYEEIDNAPEER [_K(Gluratylation)YEEIDNAPEER_]
collision cross section [4]: 417.33 ± 0.59 Å²
collision cross section [5]: 495.54 ± 1 Å²

GAEKTEVAEPR [_GAEK(Dimethyl (K))TEVAEPR_]
collision cross section [1]: 374.44 ± 1.3 Å²
collision cross section [2]: 439.06 ± 1.6 Å²

LQDVSGQLSSSKK [_LQDVSGQLSSSK(Formyl)K_]
collision cross section [3]: 394.61 ± 0.21 Å²

GEVQVSDKER [_GEVQVSDK(Succinyl)ER_]
collision cross section [19]: 361.33 ± 0.24 Å²

SKLLFSNTAAQK [_SK(Dimethyl (K))LLFSNTAAQK_]
collision cross section [1]: 389.15 Å²

TSAYGPPTR [_TSAY(Phospho (Y))GPPTR_]
collision cross section [7]: 336.75 ± 0.067 Å²

LQDVSGQLSSSKK [_LQDVSGQLSSSK(Acetyl (K))K_]
collision cross section [13]: 396.87 ± 1.3 Å²
collision cross section [14]: 461.64 ± 3.7 Å²

VDIDAPDVSIEGPDAKLK [_VDIDAPDVSIEGPDAK(Methyl (K))LK_]
collision cross section [20]: 453.93 ± 0.34 Å²
collision cross section [21]: 544.25 ± 0.42 Å²

SSGPGGQNVNKVNSK [_SSGPGGQNVNK(hydroxyisobutyryl)VNSK_]
collision cross section [15]: 407.53 ± 1.1 Å²
collision cross section [16]: 447.88 ± 1.1 Å²

AAINQKLIETGER [_AAINQK(Butyryl)LIETGER_]
collision cross section [8]: 410.95 ± 1.7 Å²

DYSAPVNFISAGLKK [_DYSAPVNFISAGLK(Trimethyl (K))K_]
collision cross section (charge state: 2, modification: Trimethyl (K)): 463.71 ± 1 Å²
collision cross section (charge state: 3, modification: Trimethyl (K)): 523.24 ± 1.8 Å²

AGRGFSLEELR [_AGR(Citrullination (R))GFSLEELR_]
collision cross section [17]: 372.54 ± 0.24 Å²

LQLEIDQKK [_LQLEIDQK(Propionyl)K_]
collision cross section [22]: 368.05 ± 0.33 Å²

GETASKLQSEISR [_GETASK(Propionyl)LQSEISR_]
collision cross section [22]: 387.23 ± 0.65 Å²

VTLEVGKVIQQGR [_VTLEVGK(Acetyl (K))VIQQGR_]
collision cross section [13]: 405.94 ± 0.47 Å²
collision cross section [14]: 479.97 ± 2.5 Å²

DDSFLGKLGGTLAR [_DDSFLGK(Butyryl)LGGTLAR_]
collision cross section [8]: 417.41 ± 0.39 Å²
collision cross section [23]: 492.3 ± 2.4 Å²

GETASKLQSEISR [_GETASK(Biotin)LQSEISR_]
collision cross section (charge state: 2, modification: Biotin): 422.42 ± 2 Å²
collision cross section (charge state: 3, modification: Biotin): 475.24 ± 0.34 Å²

VDIDVPDVNIEGPDAKLK [_VDIDVPDVNIEGPDAK(Butyryl)LK_]
collision cross section [8]: 488.42 ± 0.47 Å²

GDYDLNAVR [_GDY(Nitro (Y))DLNAVR_]
collision cross section [24]: 344.3 ± 0.72 Å²

VFSIISSEKELK [_VFSIISSEK(GlyGly (K))ELK_]
collision cross section [10]: 424.98 ± 0.97 Å²
collision cross section [11]: 493.89 ± 2 Å²

SKHLQEQLNELK [_SK(Formyl)HLQEQLNELK_]
collision cross section [3]: 412.77 ± 0.19 Å²
collision cross section [6]: 477.47 ± 2.1 Å²

LLFSNTAAQKLR [_LLFSNTAAQK(Formyl)LR_]
collision cross section [3]: 395.38 ± 0.55 Å²

GGPGAPGAPGPKGESGDYK [_GGP(Hydroxyproline)GAPGAPGPKGESGDYK_]
collision cross section [12]: 431.65 ± 0.34 Å²
collision cross section (charge state: 3, modification: Hydroxyproline): 482.83 ± 2.3 Å²

GADFLVTEVENGGSLGSKK [_GADFLVTEVENGGSLGSK(Gluratylation)K_]
collision cross section [4]: 481.44 ± 2 Å²
collision cross section [5]: 556.42 Å²

GRGAANDSTQFTVAGR [_GR(Methyl (R))GAANDSTQFTVAGR_]
collision cross section [18]: 468.2 ± 2.7 Å²

IISSIEQKEENK [_IISSIEQK(Acetyl (K))EENK_]
collision cross section [13]: 401.35 ± 0.23 Å²

TVTNAVVTVPAYFNDSQR [_TVTNAVVTVPAY(Nitro (Y))FNDSQR_]
collision cross section [24]: 470.26 ± 1.5 Å²
collision cross section (charge state: 3, modification: Nitro (Y)): 559.7 ± 0.32 Å²

ALYETELADAR [_ALY(Phospho (Y))ETELADAR_]
collision cross section [7]: 383.83 ± 0.063 Å²

SPSDSGYSYETIGKTTK [_SPSDSGYSYETIGK(hydroxyisobutyryl)TTK_]
collision cross section [15]: 457.69 ± 0.57 Å²
collision cross section [16]: 538.76 ± 2.8 Å²

LGNDFHTNKR [_LGNDFHTNK(Propionyl)R_]
collision cross section [22]: 374.29 Å²
collision cross section [25]: 447.46 ± 0.59 Å²

GFALVGVGSEASSKK [_GFALVGVGSEASSK(Propionyl)K_]
collision cross section [22]: 411.51 Å²

AAQASDLEKIHLDEK [_AAQASDLEK(Propionyl)IHLDEK_]
collision cross section [25]: 496.94 Å²

ILDLKTGTVK [_ILDLK(GlyGly (K))TGTVK_]
collision cross section [10]: 373.1 ± 0.25 Å²
collision cross section [11]: 439.15 ± 0.43 Å²

SITHSTVGSKGEK [_SITHSTVGSK(GlyGly (K))GEK_]
collision cross section [10]: 404.23 ± 1.4 Å²
collision cross section [11]: 469.84 ± 1.3 Å²

SDDESSQKDIK [_SDDESSQK(hydroxyisobutyryl)DIK_]
collision cross section [15]: 383.53 ± 0.55 Å²

DHLSDKESK [_DHLSDK(Gluratylation)ESK_]
collision cross section [4]: 353.36 ± 0.63 Å²
collision cross section [5]: 411.89 Å²

VNIGQGSHPQKVK [_VNIGQGSHPQK(Crotonyl)VK_]
collision cross section (charge state: 2, modification: Crotonyl): 430.6 ± 0.84 Å²
collision cross section (charge state: 3, modification: Crotonyl): 487.14 ± 1.3 Å²

LGSPSGKTGTCR [_LGSPSGK(Malonyl)TGTCR_]
collision cross section [9]: 365.24 ± 0.013 Å²

YEEIVKEVSTYIK [_YEEIVK(Succinyl)EVSTYIK_]
collision cross section [19]: 438.13 ± 0.83 Å²

ISALQGKLSK [_ISALQGK(hydroxyisobutyryl)LSK_]
collision cross section [15]: 359.85 ± 0.79 Å²

RLPTTGYLVYR [_R(Citrullination (R))LPTTGYLVYR_]
collision cross section [17]: 383.11 ± 0.23 Å²

IPQEKCILQTDVK [_IPQEK(GlyGly (K))CILQTDVK_]
collision cross section [10]: 446.01 ± 0.95 Å²
collision cross section [11]: 482.94 ± 1.1 Å²

IQTKAGEATVK [_IQTK(Methyl (K))AGEATVK_]
collision cross section [20]: 367.02 ± 0.38 Å²

DAIHFYNKSLAEHR [_DAIHFYNK(Methyl (K))SLAEHR_]
collision cross section [20]: 441.67 Å²
collision cross section [21]: 502.11 ± 2.1 Å²

SKHLQEQLNELK [_SK(Butyryl)HLQEQLNELK_]
collision cross section [8]: 422.39 ± 0.24 Å²
collision cross section [23]: 490.06 ± 2.9 Å²

LFVGGIKEDTEEHHLR [_LFVGGIK(hydroxyisobutyryl)EDTEEHHLR_]
collision cross section [15]: 501.81 Å²
collision cross section [16]: 546.81 ± 1.2 Å²

YEQEHAAIQDKLFQVAK [_YEQEHAAIQDK(Formyl)LFQVAK_]
collision cross section [6]: 510.23 ± 1.3 Å²

DAIHFYNKSLAEHR [_DAIHFYNK(GlyGly (K))SLAEHR_]
collision cross section [11]: 519.9 ± 0.35 Å²

TTGFYSGFSEVAEKR [_TTGFYSGFSEVAEK(Acetyl (K))R_]
collision cross section [13]: 434.33 ± 1.7 Å²
collision cross section [14]: 508.12 ± 0.12 Å²

TTEETSKPK [_TTEETSK(Malonyl)PK_]
collision cross section [9]: 336.7 ± 0.59 Å²
